Biological target: hRpn10^322–366 peptide with Y326 phosphorylated (human) (UniProt P55036)
Assay: ITC

Chain of E6AP AZUL domain, E6AP[24–87] (Q05086 24-87): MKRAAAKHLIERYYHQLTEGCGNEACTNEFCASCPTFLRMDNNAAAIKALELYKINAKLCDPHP

## E6AP AZUL domain, E6AP[24–87] (from UniProt Q05086 24-87) (domain or fragment)
  fold reduction of affinity against unphosphorylated hRpn10^322–366: 10 fold

— paper doi:10.1101/797027
